This experiment has as its target human GLP-1 receptor (human) (UniProt P43220). Put plainly: cell-based or functional assay.

human GLP-1 receptor (human), sequence (P43220 24-463): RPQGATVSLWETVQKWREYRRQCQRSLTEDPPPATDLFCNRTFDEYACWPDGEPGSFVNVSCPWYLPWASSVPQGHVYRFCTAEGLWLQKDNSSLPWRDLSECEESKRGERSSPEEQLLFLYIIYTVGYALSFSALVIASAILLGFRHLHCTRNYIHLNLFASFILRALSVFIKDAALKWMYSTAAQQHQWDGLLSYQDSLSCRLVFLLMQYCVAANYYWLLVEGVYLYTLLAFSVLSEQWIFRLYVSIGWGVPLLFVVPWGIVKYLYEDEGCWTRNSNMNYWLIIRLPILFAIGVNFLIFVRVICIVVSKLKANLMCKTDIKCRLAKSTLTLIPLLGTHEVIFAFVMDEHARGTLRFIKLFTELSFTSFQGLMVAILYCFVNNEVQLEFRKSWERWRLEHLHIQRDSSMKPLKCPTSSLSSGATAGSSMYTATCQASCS

The substance “N-epsilon37-[2-(2-{2-[2-(2-{2-[(S)-4-Carboxy-4-({trans-4-[(19-carboxynonadecanoylamino)methyl]cyclohexanecarbonyl}amino)butyrylamino]ethoxy}ethoxy)acetylamino]ethoxy}ethoxy)acetyl][DesaminoHis7,Glu22,Arg26,Arg34,Lys37]GLP-1-(7-37) (peptide)” returned an EC50 of cAMP formation (AlphaScreen, Assay XI), relative to that of compound G1 (times the EC50 of compound G1) of 5.
